Results on two substances are retold here after paper PMC10524356.

For orientation: stoichiometry N means a count of units in the complex or per binding partner.

Experiment [1] deals with HIV-2 Gag polyprotein in immature particles (HIV-2 ROD). Put plainly: cryo-EM structure.
For experiment [2], the target named is HIV-2 capsid (CA) protein carboxyl-terminal domain, CA residues 145-230 (HIV-2 ROD). Description: crystal structure.

In experiment [1], “HIV-2 Gag polyprotein in immature particles (natural protein)” returned a stoichiometry N of 6.
In experiment [2], “HIV-2 capsid (CA) protein carboxyl-terminal domain, CA residues 145-230 (domain or fragment)” came in with a stoichiometry N of 2.
